Data published in patent US20120282643A1.

Biological target: sulfite reductase tagged with a C-terminal GFP S11 (SEQ ID NO: 16)
Assay: cell-based or functional assay

Substance: Split-YFP S1-10 (T203Y) (from UniProt P42212 1-214)
- Green Fluorescence (488/510) (clone A6): 7.74
- Green Fluorescence (488/510) (clone A8): 8.54
- Green Fluorescence (488/510) (clone B3): 13.9
- Green Fluorescence (488/510) (clone B4): 16
- Green Fluorescence (488/510) (clone B6): 8.08
- Green Fluorescence (488/510) (clone B10): 16.1
- Green Fluorescence (488/510) (clone C9): 17.5
- Green Fluorescence (488/510) (clone D1): 16.4
- Green Fluorescence (488/510) (clone D2): 18.5
- Green Fluorescence (488/510) (clone D5): 17.8
- Green Fluorescence (488/510) (clone D7): 17.4
- Green Fluorescence (488/510) (clone D9): 21
- Green Fluorescence (488/510) (clone D10): 18.2
- Green Fluorescence (488/510) (clone D11): 17.1
- Green Fluorescence (488/510) (clone E1): 12.3
- Green Fluorescence (488/510) (clone E3): 17.9
- Green Fluorescence (488/510) (clone E4): 17.4
- Green Fluorescence (488/510) (clone E6): 15.4
- Green Fluorescence (488/510) (clone E8): 22.9
- Green Fluorescence (488/510) (clone E9): 23.9
- Green Fluorescence (488/510) (clone F1): 15.8
- Green Fluorescence (488/510) (clone F6): 11.5
- Green Fluorescence (488/510) (clone F7): 17.7
- Green Fluorescence (488/510) (clone F9): 21.4
- Green Fluorescence (488/510) (clone F10): 8.11
- Green Fluorescence (488/510) (clone F11): 19
- Green Fluorescence (488/510) (clone G9): 18.6
- Green Fluorescence (488/510) (clone G10): 17
- Green Fluorescence (488/510) (clone H4): 9.39
- Green Fluorescence (488/510) (clone H5): 8.77
- Green Fluorescence (488/510) (clone H9): 12.4
- Green Fluorescence (488/510) (clone H10): 13.1
- Ratio Yellow/Green Fluorescence (clone A6): 18.9
- Ratio Yellow/Green Fluorescence (clone A8): 17.5
- Ratio Yellow/Green Fluorescence (clone B3): 10.5
- Ratio Yellow/Green Fluorescence (clone B4): 9.71
- Ratio Yellow/Green Fluorescence (clone B6): 13.7
- Ratio Yellow/Green Fluorescence (clone B10): 10.2
- Ratio Yellow/Green Fluorescence (clone C9): 9.2
- Ratio Yellow/Green Fluorescence (clone D1): 9.41
- Ratio Yellow/Green Fluorescence (clone D2): 8.3
- Ratio Yellow/Green Fluorescence (clone D5): 8.66
- Ratio Yellow/Green Fluorescence (clone D7): 8.97
- Ratio Yellow/Green Fluorescence (clone D9): 7.45
- Ratio Yellow/Green Fluorescence (clone D10): 7.74
- Ratio Yellow/Green Fluorescence (clone D11): 8.31
- Ratio Yellow/Green Fluorescence (clone E1): 11.3
- Ratio Yellow/Green Fluorescence (clone E3): 8.45
- Ratio Yellow/Green Fluorescence (clone E4): 8.79
- Ratio Yellow/Green Fluorescence (clone E6): 10.1
- Ratio Yellow/Green Fluorescence (clone E8): 7.21
- Ratio Yellow/Green Fluorescence (clone E9): 6.93
- Ratio Yellow/Green Fluorescence (clone F1): 10.1
- Ratio Yellow/Green Fluorescence (clone F6): 12.6
- Ratio Yellow/Green Fluorescence (clone F7): 9.1
- Ratio Yellow/Green Fluorescence (clone F9): 7.71
- Ratio Yellow/Green Fluorescence (clone F10): 14.3
- Ratio Yellow/Green Fluorescence (clone F11): 8.74
- Ratio Yellow/Green Fluorescence (clone G9): 9.14
- Ratio Yellow/Green Fluorescence (clone G10): 9.91
- Ratio Yellow/Green Fluorescence (clone H4): 16.6
- Ratio Yellow/Green Fluorescence (clone H5): 18.4
- Ratio Yellow/Green Fluorescence (clone H9): 13.5
- Ratio Yellow/Green Fluorescence (clone H10): 13.3
- Yellow Fluorescence (510/532) (clone A6): 146
- Yellow Fluorescence (510/532) (clone A8): 150
- Yellow Fluorescence (510/532) (clone B3): 146
- Yellow Fluorescence (510/532) (clone B4): 155
- Yellow Fluorescence (510/532) (clone B6): 111
- Yellow Fluorescence (510/532) (clone B10): 165
- Yellow Fluorescence (510/532) (clone C9): 161
- Yellow Fluorescence (510/532) (clone D1): 154
- Yellow Fluorescence (510/532) (clone D2): 154
- Yellow Fluorescence (510/532) (clone D5): 154
- Yellow Fluorescence (510/532) (clone D7): 156
- Yellow Fluorescence (510/532) (clone D9): 156
- Yellow Fluorescence (510/532) (clone D10): 141
- Yellow Fluorescence (510/532) (clone D11): 143
- Yellow Fluorescence (510/532) (clone E1): 139
- Yellow Fluorescence (510/532) (clone E3): 151
- Yellow Fluorescence (510/532) (clone E4): 153
- Yellow Fluorescence (510/532) (clone E6): 155
- Yellow Fluorescence (510/532) (clone E8): 165
- Yellow Fluorescence (510/532) (clone E9): 165
- Yellow Fluorescence (510/532) (clone F1): 159
- Yellow Fluorescence (510/532) (clone F6): 144
- Yellow Fluorescence (510/532) (clone F7): 161
- Yellow Fluorescence (510/532) (clone F9): 165
- Yellow Fluorescence (510/532) (clone F10): 116
- Yellow Fluorescence (510/532) (clone F11): 166
- Yellow Fluorescence (510/532) (clone G9): 170
- Yellow Fluorescence (510/532) (clone G10): 168
- Yellow Fluorescence (510/532) (clone H4): 156
- Yellow Fluorescence (510/532) (clone H5): 161
- Yellow Fluorescence (510/532) (clone H9): 168
- Yellow Fluorescence (510/532) (clone H10): 175

Substance: Split-YFP S1-10 (T203Y, D210V) (from UniProt P42212 1-214)
- Green Fluorescence (488/510) (clone E10): 21.4
- Ratio Yellow/Green Fluorescence (clone E10): 7.33
- Yellow Fluorescence (510/532) (clone E10): 157

Substance: Split-YFP S1-10 (T203Y, Q204E) (from UniProt P42212 1-214)
- Green Fluorescence (488/510) (clone C6): 5.1
- Ratio Yellow/Green Fluorescence (clone C6): 20
- Yellow Fluorescence (510/532) (clone C6): 102

Substance: Split-YFP S1-10 (T203Y, Q204H) (from UniProt P42212 1-214)
- Green Fluorescence (488/510) (clone F8): 20.2
- Ratio Yellow/Green Fluorescence (clone F8): 8.16
- Yellow Fluorescence (510/532) (clone F8): 165

Substance: Split-YFP S1-10 (T203Y, T205A) (from UniProt P42212 1-214)
- Green Fluorescence (488/510) (clone A3): 1.8
- Ratio Yellow/Green Fluorescence (clone A3): 42
- Yellow Fluorescence (510/532) (clone A3): 75.7

Substance: Split-YFP S1-10 (Y200F, T203Y) (from UniProt P42212 1-214)
- Green Fluorescence (488/510) (clone B9): 14.7
- Ratio Yellow/Green Fluorescence (clone B9): 10.9
- Yellow Fluorescence (510/532) (clone B9): 160
